Assay results taken from patent US20260234245A1.

Experiments:
[1] = molecular target: human L1CAM on the surface of human cancer cell lines (human) (UniProt P32004); experiment: flow cytometry on HeLa cells, PE-labeled isotype control (background), mean of triplicates
[2] = molecular target: human L1CAM on the surface of human cancer cell lines (human) (UniProt P32004); experiment: flow cytometry on PC-03 cells, PE-labeled isotype control (background), mean of triplicates
[3] = molecular target: human L1CAM on the surface of human cancer cell lines (human) (UniProt P32004); experiment: flow cytometry on SKOV3 cells, PE-labeled isotype control (background), mean of triplicates
[4] = molecular target: human L1CAM on the surface of human cancer cell lines (human) (UniProt P32004); experiment: flow cytometry on Panc-1 cells, PE-labeled isotype control (background), mean of triplicates
[5] = molecular target: human L1CAM on the surface of human cancer cell lines (human) (UniProt P32004); experiment: flow cytometry on HeLa cells, PE-labeled antibody, mean of triplicates
[6] = molecular target: human L1CAM on the surface of human cancer cell lines (human) (UniProt P32004); experiment: flow cytometry on PC-03 cells, PE-labeled antibody, mean of triplicates
[7] = molecular target: human L1CAM on the surface of human cancer cell lines (human) (UniProt P32004); experiment: flow cytometry on SKOV3 cells, PE-labeled antibody, mean of triplicates
[8] = molecular target: human L1CAM on the surface of human cancer cell lines (human) (UniProt P32004); experiment: flow cytometry on Panc-1 cells, PE-labeled antibody, mean of triplicates
[9] = molecular target: human L1CAM on the surface of human cancer cell lines (human) (UniProt P32004); experiment: flow cytometry on HeLa cells, against PE-labeled isotype control MOPC-173
[10] = molecular target: human L1CAM on the surface of human cancer cell lines (human) (UniProt P32004); experiment: flow cytometry on PC-03 cells, against PE-labeled isotype control MOPC-173
[11] = molecular target: human L1CAM on the surface of human cancer cell lines (human) (UniProt P32004); experiment: flow cytometry on SKOV3 cells, against PE-labeled isotype control MOPC-173
[12] = molecular target: human L1CAM on the surface of human cancer cell lines (human) (UniProt P32004); experiment: flow cytometry on Panc-1 cells, against PE-labeled isotype control MOPC-173

Sequence of human L1CAM on the surface of human cancer cell lines (human) (P32004 20-1257): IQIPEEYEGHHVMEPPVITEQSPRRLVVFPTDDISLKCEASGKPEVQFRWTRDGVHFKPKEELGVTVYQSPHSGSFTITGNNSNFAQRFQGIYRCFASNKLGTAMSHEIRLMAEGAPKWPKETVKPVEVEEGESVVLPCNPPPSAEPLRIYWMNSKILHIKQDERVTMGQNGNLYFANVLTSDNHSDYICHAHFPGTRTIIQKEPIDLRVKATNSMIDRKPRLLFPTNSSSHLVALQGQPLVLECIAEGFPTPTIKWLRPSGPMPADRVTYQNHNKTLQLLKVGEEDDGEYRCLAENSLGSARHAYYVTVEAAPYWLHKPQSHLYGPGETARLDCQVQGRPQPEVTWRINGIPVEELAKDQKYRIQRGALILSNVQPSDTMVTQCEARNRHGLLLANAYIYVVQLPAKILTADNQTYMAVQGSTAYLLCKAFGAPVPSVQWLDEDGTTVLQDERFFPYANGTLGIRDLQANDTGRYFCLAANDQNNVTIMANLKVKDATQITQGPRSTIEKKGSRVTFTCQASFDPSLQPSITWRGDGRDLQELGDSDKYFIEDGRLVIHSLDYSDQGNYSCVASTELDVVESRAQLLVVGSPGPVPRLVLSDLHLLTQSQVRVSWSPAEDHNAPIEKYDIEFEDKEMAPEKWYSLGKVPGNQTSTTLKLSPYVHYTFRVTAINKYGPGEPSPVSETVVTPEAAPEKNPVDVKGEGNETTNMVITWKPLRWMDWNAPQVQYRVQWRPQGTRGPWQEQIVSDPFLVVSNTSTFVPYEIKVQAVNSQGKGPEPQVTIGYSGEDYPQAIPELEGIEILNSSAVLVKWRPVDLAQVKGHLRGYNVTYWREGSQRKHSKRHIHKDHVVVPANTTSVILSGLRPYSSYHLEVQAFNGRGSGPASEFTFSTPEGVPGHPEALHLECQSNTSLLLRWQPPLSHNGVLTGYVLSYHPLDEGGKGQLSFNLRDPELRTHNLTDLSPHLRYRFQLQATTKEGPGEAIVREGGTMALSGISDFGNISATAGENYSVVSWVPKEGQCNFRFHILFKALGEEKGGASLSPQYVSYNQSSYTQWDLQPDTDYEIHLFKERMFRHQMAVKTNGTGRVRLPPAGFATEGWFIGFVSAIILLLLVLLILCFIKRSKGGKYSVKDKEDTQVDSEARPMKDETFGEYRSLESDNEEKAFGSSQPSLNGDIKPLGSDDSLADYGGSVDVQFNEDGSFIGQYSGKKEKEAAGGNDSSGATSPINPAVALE

| MFI isotype control antibody [1] [MFI] | MFI isotype control antibody [2] [MFI] | MFI isotype control antibody [3] [MFI] | MFI isotype control antibody [4] [MFI] | MFI anti-L1CAM antibody [5] [MFI] | MFI anti-L1CAM antibody [6] [MFI] | MFI anti-L1CAM antibody [7] [MFI] | MFI anti-L1CAM antibody [8] [MFI] | Fold increase in MFI (anti-L1CAM vs isotype) [9] [fold] | Fold increase in MFI (anti-L1CAM vs isotype) [10] [fold] | Fold increase in MFI (anti-L1CAM vs isotype) [11] [fold] | Fold increase in MFI (anti-L1CAM vs isotype) [12] [fold] | Substance |
| --- | --- | --- | --- | --- | --- | --- | --- | --- | --- | --- | --- | --- |
| 9140 | 9420 | 8680 | 13100 |  |  |  |  |  |  |  |  | PE-labeled mouse IgG2a (κ) (clone MOPC-173, BioLegend) (antibody) |
|  |  |  |  | 1.22e+06 | 46400 | 1.5e+06 | 183000 | 133 | 5 | 173 | 14 | phycoerythrin (PE)-labeled anti-human L1CAM antibody (clone L1-OV198.5, BioLegend) |
